Measurements reported in publication PMC4457943.
Read-outs that look alike come from different tables or passages of the source.

Key:
Assay in all cases: FRET or BRET
[1] = biological target: MHC class II glycoprotein (HLA-DR) (human (endogenous in Kit225/IL-9R and MT-2))
[2] = biological target: MHC class I heavy chain (human (endogenous in Kit225/IL-9R and MT-2)) (UniProt P04439)
[3] = biological target: MHC class II glycoprotein (HLA-DR) (human (endogenous in Kit225/IL-9R and MT-2)); remark: listed apart in the source
[4] = biological target: MHC class I heavy chain (human (endogenous in Kit225/IL-9R and MT-2)) (UniProt P04439); remark: listed apart in the source

Row | Molecule | FRET efficiency E (%) [1] [%] | FRET efficiency E (%) [2] [%] | FRET efficiency E (%) [3] [%] | FRET efficiency E (%) [4] [%]
1 | IL-2 receptor α chain (IL-2Rα) (from UniProt P01589 22-272) | 21.9 | 21.7 | 11.9 | 22.5
2 | interleukin-9 receptor α-subunit (IL-9Rα), stably transfected in Kit225/IL-9R cells (receptor) SVTGEGQGPRSRTFTCLTNNILRIDCHWSAPELGQGSSPWLLFTSNQAPGGTHKCILRGSECTVVLPPEAVLVPSDNFTITFHHCMSGREQVSLVDPEYLPRRHVKLDPPSDLQSNISSGHCILTWSISPALEPMTTLLSYELAFKKQEEAWEQAQHRDHIVGVTWLILEAFELDPGFIHEARLRVQMATLEDDVVEEERYTGQWSEWSQPVCFQAPQRQGPLIPPWGWPGNTLVAVSIFLLLTGPTYLLFKLSPRVKRIFYQNVPSPAMFFQPLYSVHNGNFQTWMGAHGAGVLLSQDCAGTPQGALEPCVQEATALLTCGPARPWKSVALEEEQEGPGTRLPGNLSSEDVLPAGCTEWRVQTLAYLPQEDWAPTSLTRPAPPDSEGSRSSSSSSSSNNNNYCALGCYGGWHLSALPGNTQSSGPIPALACGLSCDHQGLETQQGVAWVLAGHCQRPGLHEDLQGMLLPSVLSKARSWTF | 15.9 | 17.2 | – | –
3 | interleukin-9 receptor α-subunit (IL-9Rα), endogenous in MT-2 cells (receptor) SVTGEGQGPRSRTFTCLTNNILRIDCHWSAPELGQGSSPWLLFTSNQAPGGTHKCILRGSECTVVLPPEAVLVPSDNFTITFHHCMSGREQVSLVDPEYLPRRHVKLDPPSDLQSNISSGHCILTWSISPALEPMTTLLSYELAFKKQEEAWEQAQHRDHIVGVTWLILEAFELDPGFIHEARLRVQMATLEDDVVEEERYTGQWSEWSQPVCFQAPQRQGPLIPPWGWPGNTLVAVSIFLLLTGPTYLLFKLSPRVKRIFYQNVPSPAMFFQPLYSVHNGNFQTWMGAHGAGVLLSQDCAGTPQGALEPCVQEATALLTCGPARPWKSVALEEEQEGPGTRLPGNLSSEDVLPAGCTEWRVQTLAYLPQEDWAPTSLTRPAPPDSEGSRSSSSSSSSNNNNYCALGCYGGWHLSALPGNTQSSGPIPALACGLSCDHQGLETQQGVAWVLAGHCQRPGLHEDLQGMLLPSVLSKARSWTF | 10.2 | 13.5 | – | –
